Test results reported in the nanobody polyreactivity screen of Harvey et al. (2022).

Assay: yeast display, Sf9 membrane polyspecificity reagent, FACS + sequencing; frameworks hold sequencing errors
How it was run: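 A synthetic nanobody library was expressed on Saccharomyces cerevisiae BJ5465 by galactose induction for 36–48 hours. The library was stained for 1 hour at 4 °C with 10% biotinylated, detergent-solubilized Sf9 membrane reagent and enriched with streptavidin microbeads before FACS. Low and high (top ~1%) gates were set on anti-HA fluorescence for expression and streptavidin fluorescence for reagent binding, and each polyreactivity label reflects the gate of origin.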

Row | Sequence | polyreactivity (PSR sort gate)
1 | QVQLVESGGGLVQAGGSLRLSCPASGFTFKSYAMGWYRQAPGKERELVAAISRGGSTYYADSVKGRFTISRDNAKNTVYLQMNSLKPEDTAVYYCNKTRYSRSYYEYDYWGQGTQVTVSS | low polyreactivity
2 | QVQLVESGGGLVQAGGSLRLSCAASGSNYPPNAMGWYRQAPGKEREFVASITSSGGITNYADSVKGRFTISRDNAKNTVYLQMNSLKPVDTAVYYCAAKYYGGTRFRPYGYWGQGTQVTVSS | high polyreactivity
3 | QVQLEESGGGLVQAGGILRFSCAASGYTFRGYAMGWYRQAPGKEREFVAAIRNSGDSSYYADSVKGRFTISRDNAKNTVYLQRHSLKPEDTAVYYSAAYSRSSKYDYWGQGSQVTVSS | low polyreactivity
4 | QVQIVESGGGLVQAGGSLRLSCDASGFTFFKYAMGWYRHAPGKERELVATISIDCITNYADSVKGRFTISRDNAKNTVYLQMNSLKPEDTAVYYCNARSLYQQLGYWGQGTQVTVSS | low polyreactivity
5 | QVQLVESGGGLVQAGGSLRLSCAASGGIFHVYGMGWYRQAPGKERELVAAISYSGASTSYADSVKGRFTISRDNAKNTVYLQMNSLKPEDTAVYYCAAKVYYRRYRSGYDYWGQGTQVTVSS | high polyreactivity
6 | QVQLVESGGGLVQAGGSLRLSCAASGSTFRYYAMGWYRQAPGKERELVAAITRGDSTNYADSVKGRFTISRDNAKNTVYLQMNSLKPEDTAVYYCNAGDGPDEEYDYWGQGTQVTVSS | low polyreactivity
7 | QVQLVESGGGLVQAGGSLRLSCPASGFTFTIYAMGWYRQAPGKERELLATISGRAGRTYYADSVKGRFTISRDNAKNTVYLQMNSLKPEDTAVYDCAARVWYQGYKSMGYWGQGTQVTVSS | high polyreactivity
8 | QVQLVESGGGLVQAGGSLRLSCAASGFIFDYYAMGWYRQAPGKERELVAAITSRSGSTYYADSVKGRFTISRDNAKNTVYLQMNSLKPEDTAVYYCSRRFKYGSTAWRFYYWGQGTQVTVSS | high polyreactivity
9 | QVQLVESGGGLVQAGGSLRLSCDASGIIFKKYAMGWNRQAPGKERELVAVITRGGSTNYADSVKGRFTISRDNAKNTVYLQMNSLKPEDTAVYYCNADSGSYHGWYGGDYGGQGTQVTVSS | low polyreactivity
10 | QVQLVESGGVLVQAGGSLRLSCAATGSIINRYAMGWYRQAPRKERELVAAISSTGSTYYADSVKGRFTISRDNAKNTVYLQLNSLKPEDTAVYYCNADATLDWLRVDSYVYWGQGTQVTVSS | low polyreactivity
11 | QVQLVESGGGLVQAGGSLRLSCAASGFTFGRYAMGWYRQAPGKERELVAAITRGSGGTYYADSVKGRFTISRDNAKNTVYLQMNSLKPEDTAVYYCATGSRSRGALRYAHFDYWGQGTQVTESS | high polyreactivity
12 | QVQLVESGGGLVQAGGSLRLSCAASGRIFYHYAMGWYRQPPGKESELVAAITWSGDSTYYADSVKGRFTISRDNAQNTVYLQMNSLKPEDTAVSYCATSSPYGVRRYSRGSWGQGTQVTVSS | high polyreactivity
13 | QVQLVESVGGLVQAGGSLRLSCAASGSIFTWYAMGWYRQAPRKERELVAAITRGGSTYADSVKGRFTISRDNAKNTVYLQMNSLKPEDTAVYYCNAVYGVYDFNYWGQGTQVTVSS | low polyreactivity
14 | QVQLVESGGGLVQAGGSLRLSCAASGSIFTVYAMGWYRQAPGKESELVAGITRRGSTYYADSVKGRFTISRDNAKNTFYLLMNRLKPEDTAVYYCAASRWVLESSGRVNWYDYWGQVTQVTVSS | low polyreactivity
15 | QVQLVESGGGLVQAGGSLRLSCAASGSTFASYAMGWYRQAPGKETELVASITRRGCSTDYADSVKGRFTISRDNAKNTVDFPMNLLKPEDTAVYYCATYSYPERTGGHRTHYYWGQGTQVTVSS | high polyreactivity
16 | QVQLVESGGGLVQAGGSLRLSCAASGRIFSLYAMGWYRQAPGKERELVAAISWSGGTTYDADSVKGRFTISRDNAKNTVYLQMNSLKPEDTAVYYCAAQYIGKKRFNYWGQGTQVTVSS | high polyreactivity
17 | QVQLVESGGGLVQAGGSLRLTCAASGRTFGKYAMGWYRQAPGKERELVAAISSSGSTNYADSVKGRFTISRDNAKNTDYLQMNSLKPEDTAVYYCAAVQPGQSTVAYDYWGQGTQVTVSS | high polyreactivity
18 | QVQLVESGGGLVQAGGSLRLSCDASGIILNINAMGWYRQAPGKERELVAAITSDGSTNYADSVKGRFTISRDNAKNTVYLQMNSLKPEDTAVYYCAVDLPWGTGVSQYPESDYWGQGTQVTVSS | low polyreactivity
19 | QVQLVESGGGLVQAGGSLRLSCAASGRIFPKYAMGWYRHAPGTERELVGAISGSSGSTYYADSVKGRFTISRDNAKNTVYLQMNSLKPDDTAVYYCAARRYRISKTSGYCGQGTQVTVSS | high polyreactivity
20 | QVQLVESGGGLVQAGGSLRLSCAASGFIFYSNAMGWYRQAPGKERELVAAISWDAGSTYYADSVKGRFTISRDNPKNTVYLQMNSLKPEDTAVYYCATDRIVGRYIYNYWGQGTQVTVSS | high polyreactivity
21 | QVQLVESGGALVQARGSLRLSCSASGSTFFHNFKGWYRQEPGKERELVAAISGSGTRSYYADSVKGRFTISRDNAKNTVYLQMNSLKPEDTAVYYCNVVPLRVPSYLPKYYYWGQGTQVTVSS | high polyreactivity
22 | QVQLVESGGGLDQAGGSLRLSCAASGSTFFKYAMGWYRQAPAKERELVAAISQNGGSTYYADSVKGRFTISRDNAKNTVYFQMNSLNPEDTAVYYCATGPNSYDYWGQGNQVTVSS | high polyreactivity

Row | Sequence | polyreactivity (PSR sort gate)
23 | QVQLVESGGGLVQAGGSLRLSCAASGSIIGYYAMGWYRQAPGKDRELVAAISWSDGSTYYAVSVKGRFTISRDNAKNTVFLQMNSLKPEVTAVYYCAARFTPYITSDDGHYDYWGQGTQVTVSA | low polyreactivity
24 | QVQLQESGGGLVQAGGSLRLSCAASGSISPYYDMGWYRQAPGKEREFVAGISGGAITYYADSVKGRFTISRDNAKNTVYLQMNSLKPEDTAVYYFAADTGVYQYHSYWGQGTQVTVSS | low polyreactivity
25 | QVQLVESGVGSVQAGGSLRLSCAASGATFPGNAMGWYRQAPGKERELVAAIRDRGTSTYDADSVKGRFTISRDNAKNTVYLQMNSLKPEDTAVYYCAAASRVAKGRWRLYDYWGQGTQVTLSS | high polyreactivity
26 | QVQLVESGGGLVQAGGSLRLSCAASGIFSRYAMGWYRQAPGKERELVAAISSGGSTYYADSVKGRFTISRDNAKNTVYLQMNSLKAEDTAVYYCAVKQRDKFAGGRNDYWGQGTQVTVSS | high polyreactivity
27 | QVQLVESGGGLVQAGGSLRLSCAASGRTFYGYAMGWYRQAPGKERELVAGITSRVGSTYYADSVKGRFTISRDNAKNNVYLQMNSLKPEDTAVYYCAADRYAVRSYHYDYWGQGTQVTVSS | low polyreactivity
28 | QVQLVESGGGLVQAGGSLRLSCAASGSISDYYAMGWYRQAPGKERELVAAISWDGGSTYYADTVKGRFTISRDNAKNTVYLQMNSLKPEDTAVYYCNAGSGASVGNHILYDYWGQGTQVTVSS | low polyreactivity
29 | QVQLVESGGGLVQAGGSLRLSCAASGSTFLDYAMGWYRQAPGQERELVAAITSVGGTYADSVKGRFTISRDKAKNTVYLQKNSLKPEDTAGYYCAADADFWYYVVHRGSTFDYSGQGTQVTVSS | low polyreactivity
30 | QVQLVESGGGLVQAGGSLRLSCAASGSIFVTYALGWYRQAPGKERELVAVLTWGGGSTYYADSVKGRFTISRDNAKNTVYLQMNSLKPEDTAVYYCAKDSYYYRRDVTVDYWGQGTQVTVSS | low polyreactivity
31 | QVQLVESGGGVVQAGGSLRLSCAASGSTFLLYDMGWYRQAPGKERELVARISSGDSTNYADSVKGRFTISRDNAKNTVYLLMNSLIPEDTAVYYCAAEGGVQEFDYWGQGTQVTVSS | low polyreactivity
32 | QVQLVESGGGLVQAGGSLRLSCAASGRTFYRNDMGWYRQAPGKERELVAAITSSGGTTYADSVKGRFTISRDNAKNTVYLQMNSLKPEDTAVYYCAAVYAYPNIYDYWGQGTQVNVSS | low polyreactivity
33 | QVQLVESGGGLVQAGGSLRLSFAASGRIFDYNVMGWYRQAPGKERELVADITSSGGATYYADSVKGRFTNSRDNAKNTVYLQMNSLKPEDTAVYYCYISYFTFYDDFYYWGQGTQVTVSS | low polyreactivity
34 | QVQLVESGGGLLQAGGSLRLSCAASGSISAQYALGWYRQAPGKERELVAAIDFSGGSTYYADSVKGRFTISRDNAKNTVYLQRNSLKPEDTAVYYCAARGDGDPSTDITLVEYDYWGQGTQVTVSS | low polyreactivity
35 | QVQLVESGGGLVQAGGSLRLSCAASGRTFRWNAMGWYRQAPGKERELVAAITKSGGSTYYADSVKGRFTISRDNAKNTVYLQMNSLIPEDTAVYYCNAEPPLYPWAYPSDSYNFWGQGTQVTVSS | low polyreactivity
36 | QVQLVESGGGLVQAGGTLRLSCAASGMTFSRNGMGWYRQAPGKEREVVADISYRGGRTYYADSVKGRFTFSRDNAKNTVYLQMHSLKPEDTAVYYCNAVFLVGVGPTSDYWGQRTQVTVSS | high polyreactivity
37 | QVQLVESGGGLVQAGGSLRLSCAASGIIFDINAMGWYRQAPGKERELVAAITTSVDSTYYADSVKGRFTISRDNAKNTVYLQMNRLKPEDTAVYYCAVAFVQFTQYDYWGQGTQVTVSS | low polyreactivity
38 | QVQLVESGGGLVQAGGSLRLSCAASGSIFGWYAKGLYRQAPGKEREFVAVISSSGDSTFYADSVKGRFTISRDNAKNTVYLQMNSLKPEDTAVYYCAAYYYYYYWPQTAYWQGDYWGHGTQVTVSS | high polyreactivity
39 | QVQLVESGGGLVQAGGSLRLSCAASGYIFHYNAMGWYRQAPGKEREFVAAISQGGGSTYYADSVKGRFTISRDNAKNTVYLQMNSLKPEDTAVYYCAADYRSGYREMDYWGQGTQVTVSS | low polyreactivity
40 | QVQLVESGGGLVQAGGSLRLSCAASGRTFYHYAMGWYRQAPGKERELVAAITGSGGSTSYADSVKGRFTISRDNAKNTVYLQMNTLKPEDTAVYYCAAVQFPTPLLLYDSWGQGTQVTVSS | low polyreactivity
41 | QVHLVESGGGLDQAGASLRITSAATGFTFRQNVKRWYRQAPGKESEFVATITWSGGRTSYADSVKGRFTISRDNAKNTVYLQMNSLKPEDTAVYYCAARFFSYSQYAYNYWGQGTQVTVSS | high polyreactivity
42 | QVQLVESGGCLVQAGGSLRLSCAASGIIFQQYAMGWYRQAPGKARELVAAITYSGDGTYYADSVKGRFTISRDNAKNTVYLQMNSLKPEDTAVYDCAAYPRDPYKEYDYWGQGTQVTVSS | low polyreactivity
43 | QVQLVESGGGLVQAGGSLRLSCAASGSIFNRYAMGCYRQATGKERELVAAINSRGGSTSYADSVKGRFTISRDIAKNTVYLQMNSLKPEDTAVYYCAADRGVNSYGYWGQGTQETVSS | high polyreactivity
